Where two headings read alike, the source gives them in different places.

The target in experiment [1] is T1, recombinant human TfR (2474-TR, R&D Systems), biotinylated (human, UniProt P02786 89-760, biotinylated with EZ-Link NHS-PEG4-Biotinylation Kit).
T1 construct: Bought protein; also called immobilized recombinant human TfR; biotinylated human TfR
The experiment can be described thus: SPR (Biacore), biotinylated human TfR captured on an SA chip, VHH injected, 1:1 dissociation fit, pH 5.5. How it is done:
(§1) E. coli TG1 bacteria were transformed with those plasmids and expressions induced. Crude extracts were prepared and analyzed for binding by flow cytometry on human TfR overexpressing cells. […] Next, off rates of these selected variants were determined on recombinant human TfR by surface plasmon resonance (Biacore, Marlborough, Massachusetts, United States). Biotinylated human TfR was captured on a streptavidin-coated SA sensor chip (Cytiva). Increasing concentrations of nanobodies were sequentially injected in a single cycle at a flow rate of 30 μL/min. The dissociation was monitored for around 20 min. A reference flow was used as a control for non-specific binding and refractive index changes. Several buffer blanks were used for double referencing. Off rates were derived after fitting the experimental data to the 1:1 binding model with the Biacore Evaluation Software.
(§2) Surface Plasmon Resonance (SPR) was used to measure the interaction between VHHs and human or cynomolgus TfR receptor. Human TfR (2474-TR, R&D Systems) and cynomolgus TfR (90253-C07H, Sino Biological) were biotinylated with the EZ-Link NHS-PEG4-Biotinylation Kit (ThermoFischer Scientific) according to the manufacturer instructions. The binding experiments were performed at 25° C. on a Biacore T200 instrument (Cytiva, Uppsala, Sweden) in HBS-EP+ buffer (10 mM HEPES, 150 mM NaCl, 3 mM EDTA and 0.05% v/v Surfactant P20). Biotinylated human TfR and cynomolgus TfR were captured on a SA sensor chip (Cytiva) at a density of around 250 RU. Increasing concentrations of VHHs were sequentially injected in one single cycle at a flow rate of 30 μl/min. The dissociation was monitored for 20 min. […] A reference flow was used as a control for non-specific binding and refractive index changes. Several buffer blanks were used for double referencing. Binding affinities (KD) and kinetic rate constants (kₒₙ, koff) were derived after fitting the experimental data to the 1:1 binding model with the Biacore T200 Evaluation Software 3.1 using the single cycle kinetic procedure.
In general terms: In SPR one partner is held on a chip, and binding of the other changes the refractive index at the surface.

The target in experiment [2] is T1, recombinant human TfR (2474-TR, R&D …). The experiment can be described thus: SPR (Biacore), biotinylated human TfR captured on an SA chip, VHH injected, 1:1 dissociation fit, pH 7.4. How it is done: as §1, §2
Experiment [3] has the same target. The experiment can be described thus: SPR (Biacore), ratio of the off rates on human TfR at the two pH values; the printed number equals kd at pH 5.5 divided by kd at pH 7.4. How it is done: as §1, §2
Experiment [4] shares this target. As to the kind of experiment: SPR (Biacore), biotinylated human TfR captured on an SA chip, VHH injected, 1:1 dissociation fit, pH 5.5. The procedure:
as §1, with “In brief, DNA was synthesized by Genscript (Piscataway, New Jersey, United States) and cloned into an E. coli compatible expression plasmid according to standard methods. E.” for “E.”
This is another data set of the same source.

For experiment [5] the target is unchanged. The experiment can be described thus: SPR (Biacore), biotinylated human TfR captured on an SA chip, VHH injected, 1:1 dissociation fit, pH 7.4. How it is done: as §1, with “In brief, DNA was synthesized by Genscript (Piscataway, New Jersey, United States) and cloned into an E. coli compatible expression plasmid according to standard methods. E.” for “E.”
The source holds these as a separate data set.

For experiment [6] the target is unchanged. The experiment can be described thus: SPR (Biacore), ratio of the off rates on human TfR at the two pH values; the printed number equals kd at pH 5.5 divided by kd at pH 7.4. How it is done: as §1, with “In brief, DNA was synthesized by Genscript (Piscataway, New Jersey, United States) and cloned into an E. coli compatible expression plasmid according to standard methods. E.” for “E.”
This is another data set of the same source.

T1 sequence (P02786 89-760 limits assumed): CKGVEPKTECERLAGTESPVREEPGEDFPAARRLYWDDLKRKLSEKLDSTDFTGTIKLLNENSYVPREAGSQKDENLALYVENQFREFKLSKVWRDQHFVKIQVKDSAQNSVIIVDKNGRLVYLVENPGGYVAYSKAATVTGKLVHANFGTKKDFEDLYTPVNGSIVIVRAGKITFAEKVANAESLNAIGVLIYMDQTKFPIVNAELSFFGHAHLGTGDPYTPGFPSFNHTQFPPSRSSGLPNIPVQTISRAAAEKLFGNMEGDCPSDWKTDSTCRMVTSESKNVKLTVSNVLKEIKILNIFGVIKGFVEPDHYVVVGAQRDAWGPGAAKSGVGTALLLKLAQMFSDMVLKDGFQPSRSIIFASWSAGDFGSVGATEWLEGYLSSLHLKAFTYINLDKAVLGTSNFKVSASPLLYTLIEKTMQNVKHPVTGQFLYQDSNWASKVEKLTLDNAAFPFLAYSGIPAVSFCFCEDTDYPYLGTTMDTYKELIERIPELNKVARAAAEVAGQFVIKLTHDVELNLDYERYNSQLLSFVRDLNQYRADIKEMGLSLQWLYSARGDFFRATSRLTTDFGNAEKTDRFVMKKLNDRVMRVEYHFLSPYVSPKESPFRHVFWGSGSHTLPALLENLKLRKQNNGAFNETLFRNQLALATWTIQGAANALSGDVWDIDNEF

B1: BBB00736 (VHH)
VHH: EVQLVESGGGLVQAGGSLRLSCAASGSIFSINAMGWYRQAPGKQRELVAVITSGGSTIYADSVKGRFTISRDNAENTVYLQMNSLRPEDTAVYYCNAHVGLKVPTIQELSLGFGSWGQGTLVTVSS
notes: also called variant of BBB00515
A word on the koff: it is the rate constant with which the complex falls apart. With B1, the koff in experiment [1] was found to be 0.0183 s⁻¹; in experiment [2], 0.00782 s⁻¹. Also, the “off-rate ratio kd pH5.5/kd pH7.4” value in experiment [3] turned out to be 2.35.

B2: BBB00677 (VHH)
VHH: EVQLVESGGGSVQPGGSLRLSCTASGRTFNYAMGWFRQAPGKNREFVATIDWKDGSSYYLDSVRGRFTIERDDAKNTVYLQMNSLRPEDAAVYTCAVGDGDYCSTYTCAAEVEYDYWGQGTLVTVSS
notes: also called variant of BBB00533
As to B2, the koff was found to be 0.00946 s⁻¹ in experiment [4] and 0.00545 s⁻¹ in experiment [5]. The “off-rate ratio kd pH5.5/kd pH7.4” value in experiment [6] stood at 1.74.

B3: BBB00707 (VHH)
VHH: EVQLVESGGGSVQPGGSLRLSCTASGRTFNYAMGWFRQAPGKNREFVATIDWHDGSSYYLDSVRGRFTIERDDAKNTVYLQMNSLRPEDAAVYTCAVGDGDYCSTYTCAAEVEYDYWGQGTLVTVSS
notes: Histidine mutant
As to B3, the off-rate (koff) in experiment [4] stood at 0.00632 s⁻¹; in experiment [5], 0.00439 s⁻¹. Also, the “off-rate ratio kd pH5.5/kd pH7.4” value in experiment [6] turned out to be 1.44.

B4: BBB00710 (VHH)
VHH: EVQLVESGGGSVQPGGSLRLSCTASGRTFNYAMGWFRQAPGKNREFVATIDWKDGHSYYLDSVRGRFTIERDDAKNTVYLQMNSLRPEDAAVYTCAVGDGDYCSTYTCAAEVEYDYWGQGTLVTVSS
notes: also called histidine mutant of BBB00515
Regarding B4, the koff in experiment [4] was determined as 0.0126 s⁻¹; in experiment [5], 0.00444 s⁻¹. For the same molecule, in experiment [6], the “off-rate ratio kd pH5.5/kd pH7.4” value is 2.84.

B5: BBB00709 (VHH)
VHH: EVQLVESGGGSVQPGGSLRLSCTASGRTFNYAMGWFRQAPGKNREFVATIDWKDHSSYYLDSVRGRFTIERDDAKNTVYLQMNSLRPEDAAVYTCAVGDGDYCSTYTCAAEVEYDYWGQGTLVTVSS
notes: as for B4
Take B5: the results for the off-rate constant (koff) in experiment [4] and in experiment [5] were 0.00937 s⁻¹ and 0.00511 s⁻¹, respectively. For the same molecule, the “off-rate ratio kd pH5.5/kd pH7.4” value in experiment [6] is 1.84.

B6: BBB00698 (VHH)
VHH: EVQLVESGGGSVQPGGSLRLSCTASGRTFHYAMGWFRQAPGKNREFVATIDWKDGSSYYLDSVRGRFTIERDDAKNTVYLQMNSLRPEDAAVYTCAVGDGDYCSTYTCAAEVEYDYWGQGTLVTVSS
notes: as for B4
For the molecule B6, the dissociation rate constant (koff) in experiment [4] came out at 0.0109 s⁻¹; in experiment [5], 0.00506 s⁻¹. For the same molecule, the “off-rate ratio kd pH5.5/kd pH7.4” value in experiment [6] was found to be 2.15.

B7: BBB00708 (VHH)
VHH: EVQLVESGGGSVQPGGSLRLSCTASGRTFNYAMGWFRQAPGKNREFVATIDWKHGSSYYLDSVRGRFTIERDDAKNTVYLQMNSLRPEDAAVYTCAVGDGDYCSTYTCAAEVEYDYWGQGTLVTVSS
notes: Histidine mutant
Turning to B7, the koff in experiment [4] was determined as 0.0086 s⁻¹; in experiment [5] it was 0.00547 s⁻¹. In experiment [6], the “off-rate ratio kd pH5.5/kd pH7.4” value is 1.57.

B8: BBB00719 (VHH)
VHH: EVQLVESGGGSVQPGGSLRLSCTASGRTFNYAMGWFRQAPGKNREFVATIDWKDGSSYYLDSVRGRFTIERDDAKNTVYLQMNSLRPEDAAVYTCAVGDGDYCSHYTCAAEVEYDYWGQGTLVTVSS
notes: Histidine mutant
Regarding B8, the dissociation rate constant (koff) in experiment [4] turned out to be 0.0091 s⁻¹; in experiment [5], 0.00586 s⁻¹. Besides, the “off-rate ratio kd pH5.5/kd pH7.4” value in experiment [6] was 1.55.

B9: BBB00704 (VHH)
VHH: EVQLVESGGGSVQPGGSLRLSCTASGRTFNYAMGWFRQAPGKNREFVATHDWKDGSSYYLDSVRGRFTIERDDAKNTVYLQMNSLRPEDAAVYTCAVGDGDYCSTYTCAAEVEYDYWGQGTLVTVSS
notes: as for B4
As to B9, the koff stood at 0.00911 s⁻¹ in experiment [4] and 0.00358 s⁻¹ in experiment [5]. Further, the “off-rate ratio kd pH5.5/kd pH7.4” value in experiment [6] worked out at 2.55.

B10: BBB00694 (VHH)
VHH: EVQLVESGGGSVQPGGSLRLSCTASHRTFNYAMGWFRQAPGKNREFVATIDWKDGSSYYLDSVRGRFTIERDDAKNTVYLQMNSLRPEDAAVYTCAVGDGDYCSTYTCAAEVEYDYWGQGTLVTVSS
notes: Histidine mutant
In the case of B10, the koff in experiment [4] stood at 0.00728 s⁻¹; in experiment [5], 0.00538 s⁻¹. Moreover, in experiment [6], the “off-rate ratio kd pH5.5/kd pH7.4” value was 1.35.

B11: BBB00697 (VHH)
VHH: EVQLVESGGGSVQPGGSLRLSCTASGRTHNYAMGWFRQAPGKNREFVATIDWKDGSSYYLDSVRGRFTIERDDAKNTVYLQMNSLRPEDAAVYTCAVGDGDYCSTYTCAAEVEYDYWGQGTLVTVSS
notes: as for B4
In the case of B11, the koff in experiment [4] was 0.0107 s⁻¹; in experiment [5], 0.00596 s⁻¹. Also, in experiment [6], the “off-rate ratio kd pH5.5/kd pH7.4” value was 1.79.

B12: BBB00718 (VHH)
VHH: EVQLVESGGGSVQPGGSLRLSCTASGRTFNYAMGWFRQAPGKNREFVATIDWKDGSSYYLDSVRGRFTIERDDAKNTVYLQMNSLRPEDAAVYTCAVGDGDYCHTYTCAAEVEYDYWGQGTLVTVSS
notes: as for B4
As to B12, the koff stood at 0.0154 s⁻¹ in experiment [4] and 0.00695 s⁻¹ in experiment [5]. For the same molecule, the “off-rate ratio kd pH5.5/kd pH7.4” value in experiment [6] turned out to be 2.21.

B13: BBB00728 (VHH)
VHH: EVQLVESGGGSVQPGGSLRLSCTASGRTFNYAMGWFRQAPGKNREFVATIDWKDGSSYYLDSVRGRFTIERDDAKNTVYLQMNSLRPEDAAVYTCAVGDGDYCSTYTCAAEVEYHYWGQGTLVTVSS
notes: Histidine mutant
B13: the koff in experiment [4] turned out to be 0.0127 s⁻¹; in experiment [5], 0.00787 s⁻¹. In experiment [6], the “off-rate ratio kd pH5.5/kd pH7.4” value came to 1.62.

B14: BBB00729 (VHH)
VHH: EVQLVESGGGSVQPGGSLRLSCTASGRTFNYAMGWFRQAPGKNREFVATIDWKDGSSYYLDSVRGRFTIERDDAKNTVYLQMNSLRPEDAAVYTCAVGDGDYCSTYTCAAEVEYDHWGQGTLVTVSS
notes: as for B4
Turning to B14, the off-rate (koff) in experiment [4] was found to be 0.0113 s⁻¹; in experiment [5] it was 0.00562 s⁻¹. Moreover, the “off-rate ratio kd pH5.5/kd pH7.4” value in experiment [6] turned out to be 2.01.

B15: BBB00716 (VHH)
VHH: EVQLVESGGGSVQPGGSLRLSCTASGRTFNYAMGWFRQAPGKNREFVATIDWKDGSSYYLDSVRGRFTIERDDAKNTVYLQMNSLRPEDAAVYTCAVGDGHYCSTYTCAAEVEYDYWGQGTLVTVSS
notes: Histidine mutant
B15: the koff in experiment [4] was determined as 0.00904 s⁻¹; in experiment [5] it was 0.00533 s⁻¹. In experiment [6], the “off-rate ratio kd pH5.5/kd pH7.4” value is 1.7.

B16: BBB00699 (VHH)
VHH: EVQLVESGGGSVQPGGSLRLSCTASGRTFNHAMGWFRQAPGKNREFVATIDWKDGSSYYLDSVRGRFTIERDDAKNTVYLQMNSLRPEDAAVYTCAVGDGDYCSTYTCAAEVEYDYWGQGTLVTVSS
notes: Histidine mutant
As for B16, the koff in experiment [4] was determined as 0.00858 s⁻¹; in experiment [5], 0.00524 s⁻¹. In addition, in experiment [6], the “off-rate ratio kd pH5.5/kd pH7.4” value stood at 1.64.

B17: BBB00695 (VHH)
VHH: EVQLVESGGGSVQPGGSLRLSCTASGHTFNYAMGWFRQAPGKNREFVATIDWKDGSSYYLDSVRGRFTIERDDAKNTVYLQMNSLRPEDAAVYTCAVGDGDYCSTYTCAAEVEYDYWGQGTLVTVSS
notes: Histidine mutant
As to B17, the koff in experiment [4] was 0.00874 s⁻¹; in experiment [5] it was 0.00577 s⁻¹. Besides, the “off-rate ratio kd pH5.5/kd pH7.4” value in experiment [6] worked out at 1.51.

The values above are taken from patent publication US20260274981A1 (VIB VZW, published 2026).
